Experimental data taken from PMC12063641.
Where “and” joins values, the source holds several entries; their conditions need not be identical. Identical values can stand only once.

Key:
[1] = target: HIV-1 NL4-3 matrix protein p17 (MA) L20K, in mature virions or VLPs (HIV-1 (NL4-3)); assay: SDS-resistant oligomer bands on SDS-PAGE and Western blot
[2] = target: HIV-1 NL4-3 Gag polyprotein precursor Pr55Gag with MA-L20K/E73K/A82T, uncleaved in immature VLPs (PR-D25N) (HIV-1 (NL4-3)); assay: cryo-EM structure
[3] = target: purified recombinant MA L20K/E73K/A82T mutant protein (HIV-1); assay: SDS-PAGE of purified protein (SDS-resistant oligomer bands)
[4] = target: HIV-1 NL4-3 matrix protein p17 (MA) L20K/E73K/A82T, in mature virions or VLPs (HIV-1 (NL4-3)); assay: SDS-resistant oligomer bands on SDS-PAGE and Western blot

## HIV-1 NL4-3 matrix protein p17 (MA) L20K, in mature virions or VLPs (natural protein)
[1]
  stoichiometry N: 2 and 3

## HIV-1 NL4-3 Gag polyprotein precursor Pr55Gag with MA-L20K/E73K/A82T, uncleaved in immature VLPs (PR-D25N) (natural protein)
[2]
  stoichiometry N: 3 and 6

## purified recombinant MA L20K/E73K/A82T mutant protein (domain or fragment)
[3]
  stoichiometry N: 2 and 3

## HIV-1 NL4-3 matrix protein p17 (MA) L20K/E73K/A82T, in mature virions or VLPs (natural protein)
[4]
  stoichiometry N: 2 and 3
